The values below come from patent US20110195849A1 (DUKE UNIVERSITY, published 2011).

Assay [1] deals with T1, MutSβ (MSH2-MSH3) (human, UniProt P43246 2-934; P20585 1-1137).
T1 construct: mature;range 1-1137; Recombinant heterodimer from baculovirus-infected Sf9 cells; 232 kDa; also called wild type MutSβ; MSH2-MSH3 heterodimer
Nature of the assay: SPRS, MutLα varied with 0.10 µM MutSβ on heteroduplex DNA, 1 mM ATP. The source says:
MutSβ PIP box mutants are defective in MutLα interaction—Interaction between MutS and MutL homologs has been documented in several systems (3, 4), but the nature of the human MutLα-MutSβ complex has not been addressed. We have therefore used SPRS to examine the capacity of MutSβ and its PIP box mutants to support formation of a MutLα-MutSβ-DNA ternary complex. With reference to FIG. 2A, ATP-dependent assembly of the MutLα-MutSβ-DNA ternary complex was scored by SPRS using a 200 bp -TG- I/D heteroduplex (solid lines) or homoduplex (dashed lines) DNA. […] Similar analyses were performed with MutSβΔ28 (middle panel) and MutSβ-F27A-F28A. […] This mass increase was not observed in the absence of ATP (not shown), and we were unable to detect DNA binding by MutLα alone (not shown). The latter results are consistent with previous findings that assembly of ternary complexes involving MutL and MutS homologs is ATP-dependent and that DNA binding by MutL homologs is limited at physiological ionic strength (17, 25, 35-38). The lifetime of the ternary complex is also short, with 80% dissociating with a t_{1/2} of 7s. […] Complex formation on homoduplex DNA (open symbols) was not saturable.

Assay [2] concerns the target T1, MutSβ (MSH2-MSH3). Nature of the assay: SPRS, MutLα-MutSβ-DNA ternary complex.

T1 sequence (P43246 2-934 limits assumed, chain 1 of 2): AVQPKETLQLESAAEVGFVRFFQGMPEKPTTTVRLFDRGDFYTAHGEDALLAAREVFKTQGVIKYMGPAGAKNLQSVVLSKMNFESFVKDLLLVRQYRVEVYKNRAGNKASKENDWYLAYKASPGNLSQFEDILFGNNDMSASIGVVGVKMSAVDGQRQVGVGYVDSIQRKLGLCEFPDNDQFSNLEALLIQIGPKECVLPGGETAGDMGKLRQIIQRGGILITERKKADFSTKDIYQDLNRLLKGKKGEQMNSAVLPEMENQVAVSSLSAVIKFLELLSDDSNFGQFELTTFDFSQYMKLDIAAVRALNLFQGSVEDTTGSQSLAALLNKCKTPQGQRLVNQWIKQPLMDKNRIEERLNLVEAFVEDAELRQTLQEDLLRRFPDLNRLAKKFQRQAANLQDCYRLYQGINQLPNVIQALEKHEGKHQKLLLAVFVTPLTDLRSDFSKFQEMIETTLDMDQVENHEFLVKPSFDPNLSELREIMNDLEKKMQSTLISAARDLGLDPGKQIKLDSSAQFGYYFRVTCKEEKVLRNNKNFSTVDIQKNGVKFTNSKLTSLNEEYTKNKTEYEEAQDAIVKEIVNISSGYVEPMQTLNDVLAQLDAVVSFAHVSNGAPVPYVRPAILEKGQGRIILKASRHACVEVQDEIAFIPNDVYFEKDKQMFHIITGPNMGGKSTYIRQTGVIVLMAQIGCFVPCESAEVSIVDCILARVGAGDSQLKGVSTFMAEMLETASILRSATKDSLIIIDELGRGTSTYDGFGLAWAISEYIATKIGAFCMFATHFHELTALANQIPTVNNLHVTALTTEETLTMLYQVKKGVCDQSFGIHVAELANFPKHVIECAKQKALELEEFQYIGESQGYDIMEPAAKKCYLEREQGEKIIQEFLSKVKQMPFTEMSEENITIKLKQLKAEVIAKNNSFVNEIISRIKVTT
T1 sequence (P20585 whole entry, chain 2 of 2): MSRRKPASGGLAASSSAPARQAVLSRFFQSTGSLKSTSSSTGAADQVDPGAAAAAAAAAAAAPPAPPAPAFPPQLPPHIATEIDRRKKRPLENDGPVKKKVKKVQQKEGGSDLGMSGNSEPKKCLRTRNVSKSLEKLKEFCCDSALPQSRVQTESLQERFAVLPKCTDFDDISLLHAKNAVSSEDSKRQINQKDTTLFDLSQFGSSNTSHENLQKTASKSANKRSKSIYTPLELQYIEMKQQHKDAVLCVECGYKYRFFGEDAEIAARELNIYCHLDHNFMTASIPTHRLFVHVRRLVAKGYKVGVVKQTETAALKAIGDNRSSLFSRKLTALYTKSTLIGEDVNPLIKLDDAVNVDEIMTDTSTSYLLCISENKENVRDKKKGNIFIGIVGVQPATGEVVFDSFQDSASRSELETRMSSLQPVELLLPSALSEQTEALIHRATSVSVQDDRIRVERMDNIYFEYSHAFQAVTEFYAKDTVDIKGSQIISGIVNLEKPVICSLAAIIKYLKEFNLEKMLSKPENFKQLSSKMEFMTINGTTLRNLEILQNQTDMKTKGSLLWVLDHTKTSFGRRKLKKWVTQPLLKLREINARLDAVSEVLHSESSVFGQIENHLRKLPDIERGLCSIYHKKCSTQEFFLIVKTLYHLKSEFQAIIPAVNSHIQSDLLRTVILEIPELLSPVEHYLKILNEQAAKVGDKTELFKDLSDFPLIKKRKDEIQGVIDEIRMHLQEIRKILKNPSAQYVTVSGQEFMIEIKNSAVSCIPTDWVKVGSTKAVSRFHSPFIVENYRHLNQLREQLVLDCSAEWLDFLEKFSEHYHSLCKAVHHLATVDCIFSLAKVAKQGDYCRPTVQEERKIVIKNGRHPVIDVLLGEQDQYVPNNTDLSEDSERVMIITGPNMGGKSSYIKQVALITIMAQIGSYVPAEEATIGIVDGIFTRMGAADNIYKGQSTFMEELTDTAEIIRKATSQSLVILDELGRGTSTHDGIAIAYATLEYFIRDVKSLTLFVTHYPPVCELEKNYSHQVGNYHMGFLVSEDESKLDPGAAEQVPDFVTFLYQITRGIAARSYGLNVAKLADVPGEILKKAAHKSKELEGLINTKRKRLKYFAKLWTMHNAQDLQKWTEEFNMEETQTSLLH

B1: MutLα (MLH1-PMS2) (enzyme, human)
chain 1: MSFVAGVIRRLDETVVNRIAAGEVIQRPANAIKEMIENCLDAKSTSIQVIVKEGGLKLIQIQDNGTGIRKEDLDIVCERFTTSKLQSFEDLASISTYGFRGEALASISHVAHVTITTKTADGKCAYRASYSDGKLKAPPKPCAGNQGTQITVEDLFYNIATRRKALKNPSEEYGKILEVVGRYSVHNAGISFSVKKQGETVADVRTLPNASTVDNIRSIFGNAVSRELIEIGCEDKTLAFKMNGYISNANYSVKKCIFLLFINHRLVESTSLRKAIETVYAAYLPKNTHPFLYLSLEISPQNVDVNVHPTKHEVHFLHEESILERVQQHIESKLLGSNSSRMYFTQTLLPGLAGPSGEMVKSTTSLTSSSTSGSSDKVYAHQMVRTDSREQKLDAFLQPLSKPLSSQPQAIVTEDKTDISSGRARQQDEEMLELPAPAEVAAKNQSLEGDTTKGTSEMSEKRGPTSSNPRKRHREDSDVEMVEDDSRKEMTAACTPRRRIINLTSVLSLQEEINEQGHEVLREMLHNHSFVGCVNPQWALAQHQTKLYLLNTTKLSEELFYQILIYDFANFGVLRLSEPAPLFDLAMLALDSPESGWTEEDGPKEGLAEYIVEFLKKKAEMLADYFSLEIDEEGNLIGLPLLIDNYVPPLEGLPIFILRLATEVNWDEEKECFESLSKECAMFYSIRKQYISEESTLSGQQSEVPGSIPNSWKWTVEHIVYKALRSHILPPKHFTEDGNILQLANLPDLYKVFERC
chain 2: MERAESSSTEPAKAIKPIDRKSVHQICSGQVVLSLSTAVKELVENSLDAGATNIDLKLKDYGVDLIEVSDNGCGVEEENFEGLTLKHHTSKIQEFADLTQVETFGFRGEALSSLCALSDVTISTCHASAKVGTRLMFDHNGKIIQKTPYPRPRGTTVSVQQLFSTLPVRHKEFQRNIKKEYAKMVQVLHAYCIISAGIRVSCTNQLGQGKRQPVVCTGGSPSIKENIGSVFGQKQLQSLIPFVQLPPSDSVCEEYGLSCSDALHNLFYISGFISQCTHGVGRSSTDRQFFFINRRPCDPAKVCRLVNEVYHMYNRHQYPFVVLNISVDSECVDINVTPDKRQILLQEEKLLLAVLKTSLIGMFDSDVNKLNVSQQPLLDVEGNLIKMHAADLEKPMVEKQDQSPSLRTGEEKKDVSISRLREAFSLRHTTENKPHSPKTPEPRRSPLGQKRGMLSSSTSGAISDKGVLRPQKEAVSSSHGPSDPTDRAEVEKDSGHGSTSVDSEGFSIPDTGSHCSSEYAASSPGDRGSQEHVDSQEKAPKTDDSFSDVDCHSNQEDTGCKFRVLPQPTNLATPNTKRFKKEEILSSSDICQKLVNTQDMSASQVDVAVKINKKVVPLDFSMSSLAKRIKQLHHEAQQSEGEQNYRKFRAKICPGENQAAEDELRKEISKTMFAEMEIIGQFNLGFIITKLNEDIFIVDQHATDEKYNFEMLQQHTVLQGQRLIAPQTLNLTAVNEAVLIENLEIFRKNGFDFVIDENAPVTERAKLISLPTSKNWTFGPQDVDELIFMLSDSPGVMCRPSRVKQMFASRACRKSVMIGTALNTSEMKKLITHMGEMDHPWNCPHGRPTMRHIANLGVISQN
notes: Purified as in Iyer et al. (21)
What is called Kd is a measure of binding affinity in units of concentration. A high value points to a looser complex. Regarding B1, binding with MutSβ (MSH2-MSH3) [1] was characterised by a dissociation constant (Kd) of 400 nM. For the same molecule, the “t1/2 of dissociation of the ternary complex” value with MutSβ (MSH2-MSH3) [2] came out at 7 s.
